Measured values as given in the RNAGym collection of RNA variant scans (doi:10.1073/pnas.2313332121).

B1: TPR t1 (parent)
chain: GACCAAUCUGCCCUCAGAGCUCGAGAACAUCUUCGGAUGCAGAGGAGGCAGGCUUCGGUGGCGCGAUAGCGCCAACGUCCUCAACCUCCAAUGCAUCCCACCACAUGAUGAUGCCUGAAGAGCCUUGGUUUUUUG

Variants of: B1
Test: polymerase ribozyme fitness, log enrichment relative to wild type (log ratio); higher = more active; in vitro selection for triplet polymerase activity
Method in brief: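 Only genotypes with ≥10 input reads and ≥1 read per output were kept after Illumina sequencing of input and output libraries. These libraries were PCR-built, transcribed mutants of each subunit of a heterodimeric triplet polymerase ribozyme, each put through one triplicate in vitro selection round with frozen incubation at −7 °C, gel excision of extended constructs, streptavidin-bead capture and RT-PCR. Fitness is a logarithmic ratio of genotype enrichment to wild-type enrichment, from inverse-variance-weighted replicate averages, with the logarithm in base 2.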

Row | Variant | polymerase ribozyme fitness (log ratio)
1 | A27C C124U | -1.18
2 | A26C G69C G117C | -6.27
3 | A26U G52U C56U | -3.49
4 | A27G C64A C115G | -7.5
5 | A27G A29G G45A C56G C73A A75G C104A G107A G117U | -6.73
6 | A27C G60C C73G | -2.55
7 | A26U C64U A118G | -3.85
8 | A27C A29U C56U U106A G122A C123G | -1.35
9 | A26C C53A U112G | -5.53
10 | A27C A46C C56G | -4.61
11 | A26U C62U A83C C104G A105C C114U U129A | -7.45
12 | A27C A29G C62A | -5.73
13 | A27G A90U U116C | -6.7
14 | A27G G69C | -2.33
15 | A27G C28G | -4.25
16 | A27C G57U C124G | -1.48
17 | A27G C70U U131A | -3.2
18 | A27C G47U U106A C124A U130A U133A | -3.86
19 | G25A C70U | -5.76
20 | G25C G48U C72G C86G A100U C102A G117U A119G | -7.7
21 | A26U C82U | -3.73

Row | Variant | polymerase ribozyme fitness (log ratio)
22 | G25C U33G C34U A46U C70A | -8.69
23 | A26U C56A | -4.03
24 | A26U C56U | -3.38
25 | A27C G36A G47C | -4.8
26 | A27G C34U C72U C86A U112A U133C | -2.87
27 | A27G A74G C115A | -4.15
28 | A27C U81C C124A | -2.25
29 | G25U U32G C72A G110A | -6.9
30 | A26U C49G | -3.57
31 | A26U G47A C86G | -2.67
32 | G25A G44U G52U C62U A105G U112A | -7.09
33 | A27G G45U G71U U96G G120U | -4.73
34 | A27C G57A C123A | -4.55
35 | A26C G35C G39U A90C G117U | -7.41
36 | A26U G47C G77A U78A | -5.33
37 | G25C G42U G44U C104U C124U | -7.89
38 | A27C C49G G77U | -5.08
39 | A26C G61C U112G | -5.78
40 | A27G C64U G77U C85A U130C | -4.3
41 | A26G G63U A95U C99U | -5.64
42 | G25C U116C | -5.31

Row | Variant | polymerase ribozyme fitness (log ratio)
43 | A27G G60A | -1.17
44 | A26U C31G A43G C89A A121U | -7.24
45 | A26C C56U G61A G63U C115U U129G U131A | -4.23
46 | G25C C28A G48U G71U C73G G113U | -6.43
47 | A27C C72U | -2.78
48 | A27C G47U | -4.29
49 | A26U G45A G77U | -3.48
50 | A26G C28U U87C A118U | -2.19
51 | A26U A37G C53A G120C C123A | -2.54
52 | A27G C49G G61C G63U C89G G117C | -6.39
53 | A26U A50U G57C | -4.64
54 | G25U A46U | -5.86
55 | G25A C72A | -5.51
56 | G25A C72U | -5.57
57 | A27G A100U G120U | -3.21
58 | A26G U54A A108G | -4.49
59 | A26G G69A | -4.23
60 | A26U C49A G60A G110A | -4.81
61 | A27G C40G G107C C115U G120U U131A | -5.69
62 | A26G C123G C124G | 0.832
63 | A27C G57C C85A G135U | -4.97

Row | Variant | polymerase ribozyme fitness (log ratio)
64 | A26C A46C C115G | -6.72
65 | G25U A43C U78G A121G | -5.96
66 | A26U C40A G60C | -6.14
67 | A27C C88U | -3.46
68 | G25C G120A | -5.07
69 | G25A U33A G61A G77U C115A | -6.46
70 | A27G A95U | -2.82
71 | G25C A46U G61C C62A G113A C124A | -8.51
72 | A26U C123A | -2.9
73 | A26U C86A G110A | -5.7
74 | A26G C49U C73A | -2.93
75 | A26U C53A G61C U78A G110A | -5.96
76 | A26U U78A | -3.18
77 | A26G A37U C72G C123U U133A | -2.74
78 | A26U G48C A50U C53U | -4.37
79 | A27G G39A C53A C85A C89A G113C | -5.16
80 | A26U C53U A95U G113A | -6.17
81 | G25A C80A U92A U112A | -6.66
82 | A27C G35U C64U C80U U109A | -7.59
83 | A27C C53A C82U | -4.15
